{
  "source": "paper PMC7065454",
  "about": "(Molecular cell, 2020)",
  "molecules": {"B1": {"name": "E. coli MS115-1 NucC (wild type) (enzyme, UniProt D7Y2H5 1-241, looked up)", "chain": "MSDWSLSQLFASLHEDIQLRLGTARKAFQHPGAKGDASEGVWIEMLDTYLPKRYQAANAFVVDSLGNFSDQIDVVVFDRQYSPFIFKFNEQIIVPAESVYAVFEAKQSASADLVAYAQRKVASVRRLHRTSLPIPHAGGTYPAKPLIPILGGLLTFESDWSPALGMSFDKALNGDLSDGRLDMGCVASHGHFYFNNIDSKFNFEHGNKPATAFLFRLIAQLQFSGTVPMIDIDAYGKWLAN"}, "B2": {"name": "Ec NucC L19D mutant with D73N (SEC-MALS sample) (enzyme, E. coli MS115-1, UniProt D7Y2H5 1-241, looked up)", "chain": "B1 chain with L19D, D73N"}, "B3": {"name": "Ec NucC L19A mutant with D73N (SEC-MALS sample) (enzyme, E. coli MS115-1, UniProt D7Y2H5 1-241, looked up)", "chain": "B1 chain with L19A, D73N"}, "B4": {"name": "Ec NucC W4A mutant with D73N (SEC-MALS sample) (enzyme, E. coli MS115-1, UniProt D7Y2H5 1-241, looked up)", "chain": "B1 chain with W4A, D73N"}, "B5": {"name": "P. aeruginosa ATCC 27853 NucC (wild type) (enzyme)", "chain": "MSQWSLSQLLSSLHEDIQQRLSVVRKTFGHPGTKGDASENVWIDMLDTYLPKRYQAAKAHVVDSLGNFSQQIDVVVFDRQYSPFIFTYENETIIPAESVYAVFEAKQTADAGLVAYAQEKVASVRRLHRTSLPIPHAGGTYPAKPLIPILGGLLTFESEWSPALGPSMDKALNANLTEGRLDIGCVAAHGHFFYDQASGAYSYTNENKPATAFLFKLIAQLQFSGTVPMIDVEAYGQWLTK"}, "B6": {"name": "Vibrio metoecus sp. RC341 NucC (enzyme, UniProt P0DUD6 1-245, looked up)", "chain": "MAQDWQLSELLENLHADVQHKLTTVRKSFKHSVVKGDGAENVWVDLFNQYLPERYRASRAFVVDSENQFSEQIDVVIYDRQYSPFIFHYAEQLIIPAESVYAVFEVKQTLNKQHIDAARKKVASVRALHRTSLPIPHAGGVHSPRELIGIIGGLLTLENELKIPDTLMGHLDHDKADKGMLNIGCAADDCFFYYDNDHQRMQVMQHKKATTAFLFELLSQLQKCGTVPMIDIHAYGKWLTPRISE"}},
  "key": {"[1]": {"target": "T1, Ec NucC (Escherichia coli, UniProt D7Y2H5)", "assay": "ITC", "type": "binding"}, "[2]": {"target": "T2, Vm NucC (Vibrio metoecus, UniProt P0DUD6)", "T2 sequence (P0DUD6 1-245)": "B6 chain", "assay": "plasmid digestion assay, weak activation", "type": "biochemical"}, "[3]": {"target": "Pa NucC (Pseudomonas aeruginosa, UniProt P0DTF8, D73N)", "assay": "co-crystal structure at […] Å", "type": "binding"}, "[4]": {"target": "T1, Ec NucC", "assay": "ITC", "type": "binding", "remark": "listed apart in the source"}, "[5]": {"target": "T1, Ec NucC", "assay": "ITC", "type": "binding", "remark": "listed apart in the source"}, "[6]": {"target": "the molecule itself", "assay": "crystal structure"}, "[7]": {"target": "the molecule itself", "assay": "SEC-MALS"}, "[8]": {"target": "the molecule itself", "assay": "SEC-MALS", "remark": "listed apart in the source"}},
  "note": "Substitutions are numbered along the chain they refer to. In names and notes the source's numbering stands. Several values for one entry are separate records, joined by “and”; a condition that tells them apart may be missing. Identical values can stand only once. Like-named read-outs stand apart in the source and are kept apart here.",
  "data": [
    {"molecule": "Nc1ncnc2c1ncn2[C@@H]1O[C@@H]2COP(=O)(O)O[C@H]3[C@@H](O)[C@H](n4cnc5c(N)ncnc54)O[C@@H]3COP(=O)(O)O[C@H]2[C@H]1O", "note": "[3′,3′ cyclic di-AMP]", "values": [
      {"measurement": "Kd", "setting": "[1]", "value": 2600, "unit": "nM"}
    ]},
    {"molecule": "Nc1nc2c(ncn2[C@@H]2O[C@@H]3COP(=O)(O)O[C@H]4[C@@H](O)[C@H](n5cnc6c(N)ncnc65)O[C@@H]4COP(=O)(O)O[C@H]4[C@@H](O)[C@H](n5cnc6c(N)ncnc65)O[C@@H]4COP(=O)(O)O[C@H]3[C@H]2O)c(=O)[nH]1", "note": "[cAAG]", "values": [
      {"measurement": "plasmid digestion assay, weak activation", "setting": "[2]", "value": "weakly activated by both cAA and cAAG"}
    ]},
    {"molecule": "Nc1ncnc2c1ncn2[C@@H]1O[C@@H]2COP(=O)(O)O[C@H]3[C@@H](O)[C@H](n4cnc5c(N)ncnc54)O[C@@H]3COP(=O)(O)O[C@H]3[C@@H](O)[C@H](n4cnc5c(N)ncnc54)O[C@@H]3COP(=O)(O)O[C@H]2[C@H]1O", "note": "[cAAA]", "values": [
      {"measurement": "co-crystal structure at 1.45 Å; SEC-MALS hexamer assembly of Pa NucC", "setting": "[3]", "value": "We obtained crystals of P. aeruginosa ATCC27853 NucC D73N mutant bound to cAAA"},
      {"measurement": "Kd", "setting": "[4]", "value": 700, "unit": "nM"}
    ]},
    {"molecule": "Nc1ncnc2c1ncn2[C@@H]1O[C@H](COP(=O)(O)O[C@H]2[C@@H](O)[C@H](n3cnc4c(N)ncnc43)O[C@@H]2COP(=O)(O)O)[C@@H](O)[C@H]1O", "note": "[5′-pApA]", "values": [
      {"measurement": "Kd", "setting": "[5]", "value": 4.4, "unit": "µM"}
    ]},
    {"molecule": "Nc1ncnc2c1ncn2[C@@H]1O[C@@H]2COP(=O)(O)O[C@H]3[C@@H](O)[C@H](n4cnc5c(N)ncnc54)O[C@@H]3COP(=O)(O)O[C@H]2[C@H]1O", "note": "[cAA]", "values": [
      {"measurement": "plasmid digestion assay, weak activation", "setting": "[2]", "value": "weakly activated by both cAA and cAAG"}
    ]},
    {"molecule": "B1", "values": [
      {"measurement": "stoichiometry N", "setting": "[6]", "value": 6},
      {"measurement": "stoichiometry N", "setting": "[7]", "value": 3}
    ]},
    {"molecule": "B2", "values": [
      {"measurement": "stoichiometry N", "setting": "[8]", "value": 3}
    ]},
    {"molecule": "B3", "values": [
      {"measurement": "binding result", "setting": "[8]", "value": "binds"}
    ]},
    {"molecule": "B4", "values": [
      {"measurement": "binding result", "setting": "[8]", "value": "binds"}
    ]},
    {"molecule": "B5", "values": [
      {"measurement": "stoichiometry N", "setting": "[7]", "value": 3},
      {"measurement": "stoichiometry N", "setting": "[8]", "value": 6}
    ]},
    {"molecule": "B6", "values": [
      {"measurement": "stoichiometry N", "setting": "[7]", "value": "3 and 6"}
    ]}
  ]
}
